The nature of this series: protein stability index of a GFP-peptide fusion (GPS, HEK-293T) (PSI 1-6); higher = more stable. The conditions noted are these: c terminus: a fixed tail appended.

± gives the standard deviation.
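Also: 24-mer peptide tiles fused after GFP, lentivirally expressed, FACS-sorted into six equal bins by GFP/DsRed ratio, decoded by Illumina sequencing, PSI is the read-weighted mean bin number.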

Consider IHDLDLTLLNPRMIVDVTPYMNPS [CLCN6], for which the protein stability index worked out at 2.29 ± 0.19 (treatment: DMSO) and 2.26 ± 0.25 (treatment: MLN4924 1 uM, 8 h).
IHLSAPCIYSEVMEALKLQPGLSF [PCMTD1] displayed a protein stability index (treatment: DMSO) of 2.33 ± 0.67 and a protein stability index (treatment: MLN4924 1 uM, 8 h) of 2.61 ± 0.34.
For IIKQLQKGVQQKRPSEAQSVILRR [DENND6A], the protein stability index is 3.08 ± 0.2 (treatment: DMSO) and 2.9 ± 0.14 (treatment: MLN4924 1 uM, 8 h).
In the same order, the values of IKEEENSEEELAAATTSKEQEPIG [MYBL2] are 5.7 ± 0.31 and 5.72 ± 0.21.
For the sequence IKEVIFMSDKYHDSDEATAARLLF [DCTD], the protein stability index runs as follows: (treatment: DMSO) 2.57 ± 0.27; (treatment: MLN4924 1 uM, 8 h) 2.62 ± 0.32.
In the case of IKRGDILPPEKGREVAKELGLPYY [RHOBTB1], the protein stability index reads like this: (treatment: DMSO) 3.2 ± 0.22; (treatment: MLN4924 1 uM, 8 h) 3.37 ± 0.39.
In the case of IKTAVNLPLERDAESFLLKSPIAP [CDC25B], the protein stability index worked out at 3.23 ± 0.24 (treatment: DMSO) and 3.14 ± 0.36 (treatment: MLN4924 1 uM, 8 h).
In the same order, the values of ILAIIAKEGDCAPEEKIWEELSVL [MAGEA6] are 2.44 ± 0.26 and 2.48 ± 0.43.
For the sequence ILGRGLQEYQLPYQRVLPLPIFTP [TCAP], the protein stability index runs as follows: (treatment: DMSO) 2.25 ± 0.21; (treatment: MLN4924 1 uM, 8 h) 2.37 ± 0.12.
In the same order, the values of ILHIMVKVVKGHRPELPPVCRARP [RIPK4] are 3.35 ± 0.92 and 2.4 ± 0.36.
With ILKLEQENCTLVTTFRGHTGGVTA [WDFY2], the protein stability index was determined as 2.79 ± 0.13 (treatment: DMSO) and 3.51 ± 0.5 (treatment: MLN4924 1 uM, 8 h).
The like results for ILKRLLKEQHLWDVDLLDSKVIEI [DLC1] were, in that order, 2.44 ± 1 and 2.02 ± 0.68.
For the sequence ILNSMNSLRKSNTLCDVTLRVEQK [KLHL12], the protein stability index runs as follows: (treatment: DMSO) 2.65 ± 0.18; (treatment: MLN4924 1 uM, 8 h) 2.9 ± 0.33.
The like results for ILQLEECCTHNNSATLSWKQPPLS [TRIM9] were, in that order, 2.67 ± 0.42 and 2.78 ± 0.23.
In the same order, the values of INCKGRSKSNLGWTPLHLACYFGH [OSBPL1A] are 2.63 ± 0.32 and 2.28 ± 0.32.
The like results for INQLTFIMDANQTYLVSERLEREE [FAF2] were, in that order, 3.17 ± 0.15 and 3.15 ± 0.21.
Take INRLVGLQNTYMGYLDYRKKAIKD [GLT8D2]: the protein stability index is, setting by setting: (treatment: DMSO) 2.7 ± 0.3; (treatment: MLN4924 1 uM, 8 h) 3.01 ± 0.05.
The sequence INSRRWCSNLTPNVPNVCRMYCSD [SPACA3] returned a protein stability index (treatment: DMSO) of 2.13 ± 0.26 and a protein stability index (treatment: MLN4924 1 uM, 8 h) of 2.42 ± 0.33.
For the sequence IPANVSNCNWFCEGSFNGSEKETM [KRT33B], the protein stability index (treatment: DMSO) was determined as 4.19 ± 0.15 and the protein stability index (treatment: MLN4924 1 uM, 8 h) worked out at 4.07 ± 0.3.
On to IPPYSRASLKGYQWLKDKILSEEG [KCNAB2], for which the protein stability index (treatment: DMSO) worked out at 2.64 ± 0.45 and the protein stability index (treatment: MLN4924 1 uM, 8 h) is 3.02 ± 0.54.
Take IQGNIEYSCPATNECEITKRRRKS [ESRRG]: the protein stability index reads like this: (treatment: DMSO) 4.85 ± 0.15; (treatment: MLN4924 1 uM, 8 h) 5.13 ± 0.25.
In the same order, the values of IQSKDGKSPLHMTAVHGRFTRSQT [ANKRD44] are 3.84 ± 0.32 and 3.9 ± 0.36.
In turn, IREQIKKYRRHFLRFCHNNKKAKR [EIF5] had a protein stability index (treatment: DMSO) of 2.35 ± 0.19 and a protein stability index (treatment: MLN4924 1 uM, 8 h) of 2.33 ± 0.16.
On to IRLCDMRASALCDRHTKFFEEPED [PPP2R2B], for which the protein stability index came out at 3.59 ± 0.11 (treatment: DMSO) and 3.77 ± 0.2 (treatment: MLN4924 1 uM, 8 h).
In the same order, the values of ISDRYSPELRQLVLSLLSLEPAQR [NEK8] are 2.66 ± 0.38 and 2.3 ± 0.39.
Regarding ISKMEPLEIPVETITSEVIEKCTT [CRY1], the protein stability index was determined as 4.08 ± 0.64 (treatment: DMSO) and 4.32 ± 0.2 (treatment: MLN4924 1 uM, 8 h).
ISLVKREHDFLDRDAIEALCRRLN [DLC1]: the protein stability index reads like this: (treatment: DMSO) 2.69 ± 0.18; (treatment: MLN4924 1 uM, 8 h) 2.8 ± 0.42.
Regarding ITALLNVSRRTSEACMTHLHYKWI [DUSP5], the protein stability index (treatment: DMSO) amounted to 2.75 ± 0.53 and the protein stability index (treatment: MLN4924 1 uM, 8 h) amounted to 2.54 ± 0.32.
In the case of ITAPTEVEVMDETNCQKVLNMWCC [CSNK1G3], the protein stability index is, setting by setting: (treatment: DMSO) 2.84 ± 0.29; (treatment: MLN4924 1 uM, 8 h) 2.98 ± 0.29.
In the same order, the values of ITNQEELWKMKPRRNLEEDDYLHK [STEAP1] are 4.22 ± 0.41 and 4.02 ± 0.26.
Take ITTLRVPVLRPMDLMVEATPRRVF [PPP2R2B]: the protein stability index runs as follows: (treatment: DMSO) 2.52 ± 0.17; (treatment: MLN4924 1 uM, 8 h) 2.71 ± 0.27.
The like results for IVCAQSSQSLWNRLSVLLNLLPAA [SMG5] were, in that order, 2.8 ± 0.31 and 2.99 ± 0.28.
In the same order, the values of IVETLCIIWFSFELVVRFFACPSK [KCNA1] are 3.11 ± 0.19 and 3.15 ± 0.32.
In the same order, the values of IVRLRTIGELLAPAAPFDKKCGRE [WSB1] are 2.64 ± 0.2 and 2.85 ± 0.34.
Consider IVRRRSRDVPESPQHAADTPKSGE [YJU2B], for which the protein stability index is, setting by setting: (treatment: DMSO) 5.06 ± 0.25; (treatment: MLN4924 1 uM, 8 h) 5.21 ± 0.22.
As to IVSNFNYFYHRETENEEQTQLTQN [KCNA4], the protein stability index runs as follows: (treatment: DMSO) 3.03 ± 0.12; (treatment: MLN4924 1 uM, 8 h) 3.38 ± 0.25.
